One block for each molecule: values may come before it.
What was measured:
[1] = target: Fas R86A mutant tested for E09 binding (human) (UniProt P25445); experiment: ELISA
[2] = target: His-Fas (His-tagged human Fas extracellular domain, wild type) (human); experiment: ELISA
His-Fas^R87A (human) = experiment: ELISA
[3] = target: Fas (CD95), endogenous on human cells (human (endogenous in OVCAR3, Jurkat, PBMC-derived T cells)) (UniProt P25445)
[4] = target: T1, Fc-tagged Fas (recombinant extracellular domain of Fas with a C-terminal Fc) (human, UniProt P25445 26-173); experiment: ELISA; Fc-tagged Fas (2 μg/ml) coated on 96-well plates; His-tagged FasL (single or tandem) in 2-fold dilutions from 50 to 0.048 nM, 1 h at 37 °C; details: both partners purified
T1 construct: human Fas (CD95) extracellular domain; also called Fas-IgG1 Fc; IgG4-Fc-tagged Fas; source: FreeStyle CHO-S cells, purified (protein A columns); not shown: Fc (IgG4 in the methods, IgG1 in the results), C-terminal, kept
T1 sequence (looked up): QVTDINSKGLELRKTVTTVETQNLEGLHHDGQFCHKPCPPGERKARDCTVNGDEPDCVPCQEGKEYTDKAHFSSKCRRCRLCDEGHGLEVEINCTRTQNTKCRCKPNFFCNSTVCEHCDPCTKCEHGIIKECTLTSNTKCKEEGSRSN

[5] = target: the molecule itself; experiment: non-reducing, partially denaturing SDS-PAGE with anti-His immunoblot; purified His-tagged FasL added to Jurkat cells in culture wells, 30 min; soup and total lysates together; FasL trimer formation
[6] = target: T2, His-Fas (His-tagged human Fas extracellular domain, wild type) (human); experiment: BLI
T2 chain: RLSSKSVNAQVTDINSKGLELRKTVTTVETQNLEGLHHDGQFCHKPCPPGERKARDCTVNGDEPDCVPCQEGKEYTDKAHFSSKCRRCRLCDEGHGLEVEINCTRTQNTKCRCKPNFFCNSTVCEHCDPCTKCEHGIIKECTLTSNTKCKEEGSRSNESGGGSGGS

[7] = target: T2, His-Fas (His-tagged human Fas …); experiment: BLI

Molecule: CH11 IgG1
- Kd [1]: 2.02 nM
- Kd [2]: 0.983 nM
- Kd (His-Fas^R87A (human)): 2.2 nM

Molecule: His_FasL^TL1A (His-tagged FasL with the cognate region of TL1A, DTYGIV to HELGLA) (ligand)
- cytotoxic activity against T cells (cell survival assay, Fig. 3F, G) [3]: > 70%

B1: His_FasL^WT (N-terminal His-tagged human FasL, wild type) (ligand)
chain: GGSPSPPPEKKELRKVAHLTGKSNSRSMPLEWEDTYGIVLLSGVKYKKGGLVINETGLYFVYSKVYFRGQSCNNLPLSHKVYMRNSKYPQDLVMMEGKMMSYCTTGQMWARSSYLGAVFNLTSADHLYVNVSELSLVNFEESQTFFGLYKL
notes: linker between the His tag and FasL; also called WT FasL; His-tagged FasL; source: FreeStyle CHO-S cells, transfected, purified (Ni-Sepharose HisTrap); not shown: His7, N-terminal, kept
- binding result [4]: binds
- stoichiometry N [5]: 3

B3: His_FasL^E271A (ligand, human)
chain: GGSPSPPPEKKELRKVAHLTGKSNSRSMPLEWEDTYGIVLLSGVKYKKGGLVINETGLYFVYSKVYFRGQSCNNLPLSHKVYMRNSKYPQDLVMMEGKMMSYCTTGQMWARSSYLGAVFNLTSADHLYVNVSELSLVNFEASQTFFGLYKL
notes: linker between the His tag and FasL; also called A271; source: FreeStyle CHO-S cells, transfected, purified (Ni-Sepharose HisTrap); not shown: His7, N-terminal, kept
- stoichiometry N [5]: 3

B4: His_FasL^E270A (ligand, human)
chain: GGSPSPPPEKKELRKVAHLTGKSNSRSMPLEWEDTYGIVLLSGVKYKKGGLVINETGLYFVYSKVYFRGQSCNNLPLSHKVYMRNSKYPQDLVMMEGKMMSYCTTGQMWARSSYLGAVFNLTSADHLYVNVSELSLVNFAESQTFFGLYKL
notes: linker between the His tag and FasL; source: FreeStyle CHO-S cells, transfected, purified (Ni-Sepharose HisTrap); not shown: His7, N-terminal, kept
- binding result [4]: binds

B5: His_FasL^E163A (ligand, human)
chain: GGSPSPPPEKKELRKVAHLTGKSNSRSMPLEWADTYGIVLLSGVKYKKGGLVINETGLYFVYSKVYFRGQSCNNLPLSHKVYMRNSKYPQDLVMMEGKMMSYCTTGQMWARSSYLGAVFNLTSADHLYVNVSELSLVNFEESQTFFGLYKL
notes: linker between the His tag and FasL; also called A163; source: FreeStyle CHO-S cells, transfected, purified (Ni-Sepharose HisTrap); not shown: His7, N-terminal, kept
- stoichiometry N [5]: 3

B7: DB-FasL (protein)
chain: PSPPPEKKELRKVAHLTGKSNSRSMPLEWEDTYGIVLLSGVKYKKGGLVINETGLYFVYSKVYFRGQSCNNLPLSHKVYMRNSKYPQDLVMMEGKMMSYCTTGQMWARSSYLGAVFNLTSADHLYVNVSELSLVNFEESQTFFGLYKL
modifications: Wild-type FasL ectodomain fused to the C-terminus (CH3) of the idarucizumab (anti-dabigatran) IgG1 heavy chain, one FasL per heavy chain. The IgG carrier and linker are left out because they do not bind Fas. Limits are taken from the sister constructs His-FasL WT and E09-FasL WT printed in the tables (PSPPPEKKEL...GLYKL).
- Kd [6]: 60.6 nM
- koff [7]: 0.0049 s⁻¹

B8: His_FasL^WT-A247E (tandem: wild-type FasL unit and A247E unit) (ligand, human)
chain: GGSPSPPPEKKELRKVAHLTGKSNSRSMPLEWEDTYGIVLLSGVKYKKGGLVINETGLYFVYSKVYFRGQSCNNLPLSHKVYMRNSKYPQDLVMMEGKMMSYCTTGQMWARSSYLGAVFNLTSADHLYVNVSELSLVNFEESQTFFGLYKLGGGSGGGSGGGSPSPPPEKKELRKVAHLTGKSNSRSMPLEWEDTYGIVLLSGVKYKKGGLVINETGLYFVYSKVYFRGQSCNNLPLSHKVYMRNSKYPQDLVMMEGKMMSYCTTGQMWARSSYLGEVFNLTSADHLYVNVSELSLVNFEESQTFFGLYKL
notes: linker between the His tag and the first FasL unit; linker between the two FasL units; source: CHO expression system, purified (HisTrap Ni Sepharose); not shown: His7, N-terminal, kept
- binding result [4]: binds

The remaining lines, values ahead:

- binding result [4]: binds
B2: His_FasL^D164A (printed as His_FasL^D163A in Table 1) (ligand, human)
chain: GGSPSPPPEKKELRKVAHLTGKSNSRSMPLEWEATYGIVLLSGVKYKKGGLVINETGLYFVYSKVYFRGQSCNNLPLSHKVYMRNSKYPQDLVMMEGKMMSYCTTGQMWARSSYLGAVFNLTSADHLYVNVSELSLVNFEESQTFFGLYKL
notes: as for B4

- binding result [4]: binds
B6: His_FasL^R156G (ALPS mutation) (ligand, human)
chain: GGSPSPPPEKKELRKVAHLTGKSNSGSMPLEWEDTYGIVLLSGVKYKKGGLVINETGLYFVYSKVYFRGQSCNNLPLSHKVYMRNSKYPQDLVMMEGKMMSYCTTGQMWARSSYLGAVFNLTSADHLYVNVSELSLVNFEESQTFFGLYKL
notes: as for B4

- binding result [4]: binds
B9: His_FasL^WT-G277S (tandem: wild-type FasL unit and G277S unit) (ligand, human)
chain: GGSPSPPPEKKELRKVAHLTGKSNSRSMPLEWEDTYGIVLLSGVKYKKGGLVINETGLYFVYSKVYFRGQSCNNLPLSHKVYMRNSKYPQDLVMMEGKMMSYCTTGQMWARSSYLGAVFNLTSADHLYVNVSELSLVNFEESQTFFGLYKLGGGSGGGSGGGSPSPPPEKKELRKVAHLTGKSNSRSMPLEWEDTYGIVLLSGVKYKKGGLVINETGLYFVYSKVYFRGQSCNNLPLSHKVYMRNSKYPQDLVMMEGKMMSYCTTGQMWARSSYLGAVFNLTSADHLYVNVSELSLVNFEESQTFFSLYKL
notes: as for B8

- Kd [6]: 0.377 nM
B10: E09 IgG1 (preclinical Fas agonist antibody) (antibody, V domains shown)
VH: QLQLQESGPGLVKPSETLSLTCTVSGASISANSYYGVWVRQSPGKGLEWVGSIAYRGNSNSGSTYYNPSLKSRATVSVDTSKNQVSLRLTSVTAADTALYYCARRQLLDDGTGYQWAAFDVWGQGTMVTVSS
VL: QSVLTQPPSVSEAPRQTVTISCSGNSFNIGRYPVNWYQQLPGKAPKLLIYYNNLRFSGVSDRFSGSKSGTSASLAIRDLLSEDEADYYCSTWDDTLKGWVFGGGTKVTVLG

Source: paper PMC10657439 (Cell Death and Differentiation, 2023)
